Columns and labels:
Assay in all cases: two-hybrid library CCNG1;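 also: natural log of median RNA to DNA barcode read ratio; higher means stronger binding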
[1] = target: T1, 4H3606-bH
T1 chain: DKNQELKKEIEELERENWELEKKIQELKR

[2] = target: T2, 4H462-bH
T2 chain: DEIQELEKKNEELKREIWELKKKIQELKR

[3] = target: T3, 4H797-bH
T3 chain: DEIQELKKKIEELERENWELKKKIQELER

[4] = target: T4, 4H3843-bH
T4 chain: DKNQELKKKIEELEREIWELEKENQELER

[5] = target: T5, 4H3782-bH
T5 chain: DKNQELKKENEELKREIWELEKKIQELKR

[6] = target: T6, 4H607-bH
T6 chain: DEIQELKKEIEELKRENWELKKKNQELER

[7] = target: T7, 4H3189-bH
T7 chain: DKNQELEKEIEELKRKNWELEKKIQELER

[8] = target: T8, 4H72-bH
T8 chain: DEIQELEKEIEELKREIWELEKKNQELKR

[9] = target: T9, 4H883-bH
T9 chain: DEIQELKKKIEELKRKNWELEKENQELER

[10] = target: T10, 4H370-bH
T10 chain: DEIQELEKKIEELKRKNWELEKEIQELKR

[11] = target: T11, 4H568-bH
T11 chain: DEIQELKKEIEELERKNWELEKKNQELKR

[12] = target: T12, 4H331-bH
T12 chain: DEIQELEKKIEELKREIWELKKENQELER

[13] = target: T13, 4H918-bH
T13 chain: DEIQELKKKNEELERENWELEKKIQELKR

[14] = target: T14, 4H4001-bH
T14 chain: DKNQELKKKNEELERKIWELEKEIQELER

[15] = target: T15, 4H953-bH
T15 chain: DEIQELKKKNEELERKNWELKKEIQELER

[16] = target: T16, 4H687-bH
T16 chain: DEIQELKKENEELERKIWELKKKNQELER

[17] = target: T17, 4H906-bH
T17 chain: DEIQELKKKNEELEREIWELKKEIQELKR

[18] = target: T18, 4H3638-bH
T18 chain: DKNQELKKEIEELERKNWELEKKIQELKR

[19] = target: T19, 4H850-bH
T19 chain: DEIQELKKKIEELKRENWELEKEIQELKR

[20] = target: T20, 4H584-bH
T20 chain: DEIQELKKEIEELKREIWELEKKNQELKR

[21] = target: T21, 4H3414-bH
T21 chain: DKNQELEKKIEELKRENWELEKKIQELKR

[22] = target: T22, 4H683-bA
T22 chain: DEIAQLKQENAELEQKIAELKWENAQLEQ

[23] = target: T23, 4H570-bH
T23 chain: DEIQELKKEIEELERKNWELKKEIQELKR

[24] = target: T24, 4H619-bH
T24 chain: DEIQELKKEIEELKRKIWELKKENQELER

[25] = target: T25, 4H3974-bH
T25 chain: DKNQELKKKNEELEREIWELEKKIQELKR

[26] = target: T26, 4H3631-bH
T26 chain: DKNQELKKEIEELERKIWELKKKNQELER

[27] = target: T27, 4H3817-bH
T27 chain: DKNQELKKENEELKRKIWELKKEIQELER

[28] = target: T28, 4H754-bA
T28 chain: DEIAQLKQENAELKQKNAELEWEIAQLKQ

[29] = target: T29, 4H3855-bA
T29 chain: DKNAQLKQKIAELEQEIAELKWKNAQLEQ

[30] = target: T30, 4H568-bA
T30 chain: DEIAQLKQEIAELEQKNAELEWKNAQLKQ

[31] = target: T31, 4H3354-bA
T31 chain: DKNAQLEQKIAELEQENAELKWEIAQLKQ

[32] = target: T32, 4H918-bA
T32 chain: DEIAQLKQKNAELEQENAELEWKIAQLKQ

[33] = target: T33, 4H338-bA
T33 chain: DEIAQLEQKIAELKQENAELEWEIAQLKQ

[34] = target: T34, 4H687-bA
T34 chain: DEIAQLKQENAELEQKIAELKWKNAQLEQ

[35] = target: T35, 4H4001-bA
T35 chain: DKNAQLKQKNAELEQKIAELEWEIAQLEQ

[36] = target: T36, P9A-bA
T36 chain: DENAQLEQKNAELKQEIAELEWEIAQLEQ

[37] = target: T37, 4H883-bA
T37 chain: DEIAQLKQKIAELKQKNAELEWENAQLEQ

[38] = target: T38, 4H967-bA
T38 chain: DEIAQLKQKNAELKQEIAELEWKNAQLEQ

[39] = target: T39, 4H3782-bA
T39 chain: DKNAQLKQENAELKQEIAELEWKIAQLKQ

[40] = target: T40, 4H908-bA
T40 chain: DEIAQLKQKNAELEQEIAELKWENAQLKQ

[41] = target: T41, 4H72-bA
T41 chain: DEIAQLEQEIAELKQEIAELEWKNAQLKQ

[42] = target: T42, 4H3427-bA
T42 chain: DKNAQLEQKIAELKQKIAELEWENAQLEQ

[43] = target: T43, 4H717-bA
T43 chain: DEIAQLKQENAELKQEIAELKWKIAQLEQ

[44] = target: T44, 4H953-bA
T44 chain: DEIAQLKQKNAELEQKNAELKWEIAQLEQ

[45] = target: T45, 4H454-bA
T45 chain: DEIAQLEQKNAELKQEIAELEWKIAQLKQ

[46] = target: T46, 4H607-bA
T46 chain: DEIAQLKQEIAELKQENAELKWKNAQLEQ

[47] = target: T47, 4H797-bA
T47 chain: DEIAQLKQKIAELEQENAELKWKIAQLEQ

[48] = target: T48, 4H796-bH
T48 chain: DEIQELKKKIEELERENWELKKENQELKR

[49] = target: T49, 4H932-bH
T49 chain: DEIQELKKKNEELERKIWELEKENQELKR

[50] = target: T50, 4H3364-bH
T50 chain: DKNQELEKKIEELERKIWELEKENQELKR

[51] = target: T51, 4H730-bH
T51 chain: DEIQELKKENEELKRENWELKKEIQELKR

[52] = target: T52, 4H949-bH
T52 chain: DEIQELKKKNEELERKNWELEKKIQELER

[53] = target: T53, 4H56-bH
T53 chain: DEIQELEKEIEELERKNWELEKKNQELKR

[54] = target: T54, O5-bP
T54 chain: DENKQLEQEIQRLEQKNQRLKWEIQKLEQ

[55] = target: T55, O16-bN
T55 chain: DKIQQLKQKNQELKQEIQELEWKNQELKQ

[56] = target: T56, 4H349-bH
T56 chain: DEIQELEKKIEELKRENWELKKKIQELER

[57] = target: T57, 4H3381-bH
T57 chain: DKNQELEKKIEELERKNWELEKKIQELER

DKNQELEKEIEELKRKNWELEKKIQELER [4H3189-bH]
interaction score [1]: -0.801 | interaction score [2]: -0.167 | interaction score [3]: -0.148 | interaction score [4]: -0.157 | interaction score [5]: -0.496 | interaction score [6]: -2.19 | interaction score [7]: 0.907 | interaction score [8]: -0.107 | interaction score [9]: -0.365 | interaction score [10]: -0.165 | interaction score [11]: -0.408 | interaction score [12]: -0.227 | interaction score [13]: -0.173 | interaction score [14]: -0.0803 | interaction score [15]: 0.375 | interaction score [16]: -0.776

DKNQELEKKIEELKRENWELEKKIQELKR [4H3414-bH]
interaction score [17]: -0.25 | interaction score [18]: -1.45 | interaction score [19]: 0.00973 | interaction score [20]: -0.695 | interaction score [21]: 0.938 | interaction score [22]: 0.0371 | interaction score [23]: 0.846 | interaction score [24]: 0.721 | interaction score [25]: 0.33 | interaction score [26]: 0.689 | interaction score [27]: 0.48

DKNQELKKEIEELERKIWELKKKNQELER [4H3631-bH]
interaction score [17]: -1.74 | interaction score [18]: 0.578 | interaction score [19]: -1.94 | interaction score [20]: -0.0526 | interaction score [23]: -1.5 | interaction score [24]: 0.647 | interaction score [25]: 0.292 | interaction score [26]: 1.13 | interaction score [15]: 0.206 | interaction score [27]: 0.637

DKNAQLEQKIAELEQENAELKWEIAQLKQ [4H3354-bA]
interaction score [28]: -0.511 | interaction score [29]: -0.492 | interaction score [30]: -1.07 | interaction score [31]: 1.66 | interaction score [32]: -0.0912 | interaction score [33]: 0.149 | interaction score [34]: 0.42 | interaction score [35]: -0.362 | interaction score [36]: -1.59 | interaction score [37]: -0.0506 | interaction score [38]: -0.407 | interaction score [39]: -0.851 | interaction score [40]: -1.17 | interaction score [41]: -0.822 | interaction score [42]: -0.0236 | interaction score [43]: -0.712 | interaction score [44]: -0.675 | interaction score [45]: -1.24 | interaction score [46]: -0.0475 | interaction score [47]: -1.14

DKNQELEKKIEELERKIWELEKENQELKR [4H3364-bH]
interaction score [48]: -0.523 | interaction score [49]: -0.252 | interaction score [50]: 1.55 | interaction score [51]: -0.811 | interaction score [52]: 0.153 | interaction score [53]: -0.464 | interaction score [54]: 0.546 | interaction score [55]: 0.622 | interaction score [56]: -0.118 | interaction score [57]: 0.55
